Measured values published in the supplement of paper PMC10567573.

B1: PCMTD2 (parent)
chain: FFIRTSDSFDKFDFCEPSFVTGNC

Variants of: B1
Assay: protein stability index of a GFP-peptide fusion (GPS, HEK-293T) (PSI 1-6); higher = more stable
Conditions: c terminus: a fixed tail appended
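Note: lentivirally expressed fusions sorted by FACS into six bins by GFP to DsRed ratio, PSI derived from sequencing read proportions per bin multiplied by bin number.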

Row | Variant | protein stability index
1 | FFNRTSDSFDKFDFCEPSFVTGNC [I3N] | 1.98
2 | FFRRTSDSFDKFDFCEPSFVTGNC [I3R] | 2.45
3 | FFGRTSDSFDKFDFCEPSFVTGNC [I3G] | 2.18
4 | FFFRTSDSFDKFDFCEPSFVTGNC [I3F] | 2.17
5 | FFQRTSDSFDKFDFCEPSFVTGNC [I3Q] | 1.96
6 | FFTRTSDSFDKFDFCEPSFVTGNC [I3T] | 2.1
7 | FFMRTSDSFDKFDFCEPSFVTGNC [I3M] | 1.98
8 | FFWRTSDSFDKFDFCEPSFVTGNC [I3W] | 2.9
9 | FFLRTSDSFDKFDFCEPSFVTGNC [I3L] | 1.73
10 | FFIRTSDSRDKFDFCEPSFVTGNC [F9R] | 1.7
11 | FFIRTSDSKDKFDFCEPSFVTGNC [F9K] | 2.16
12 | FFIRTSDSEDKFDFCEPSFVTGNC [F9E] | 1.9
13 | FFIRTSDSVDKFDFCEPSFVTGNC [F9V] | 1.75
14 | FFIRTSDSQDKFDFCEPSFVTGNC [F9Q] | 1.92
15 | FFIRTSDSHDKFDFCEPSFVTGNC [F9H] | 2.24
16 | FFIRTSDSGDKFDFCEPSFVTGNC [F9G] | 2.53
17 | FFIRTYDSFDKFDFCEPSFVTGNC [S6Y] | 2.48
18 | FFIRTGDSFDKFDFCEPSFVTGNC [S6G] | 2.33
19 | FFIRTDDSFDKFDFCEPSFVTGNC [S6D] | 3.28
20 | FFIRTWDSFDKFDFCEPSFVTGNC [S6W] | 2.61
21 | FFIRTADSFDKFDFCEPSFVTGNC [S6A] | 2.04
22 | FFIRTKDSFDKFDFCEPSFVTGNC [S6K] | 2.59
23 | FFIRTCDSFDKFDFCEPSFVTGNC [S6C] | 1.99

Row | Variant | protein stability index
24 | FFIRTMDSFDKFDFCEPSFVTGNC [S6M] | 2.53
25 | FFIRRSDSFDKFDFCEPSFVTGNC [T5R] | 1.82
26 | FFIRKSDSFDKFDFCEPSFVTGNC [T5K] | 2.38
27 | FFIRGSDSFDKFDFCEPSFVTGNC [T5G] | 1.92
28 | FFIRISDSFDKFDFCEPSFVTGNC [T5I] | 3.08
29 | FFIRESDSFDKFDFCEPSFVTGNC [T5E] | 2.14
30 | FFIRFSDSFDKFDFCEPSFVTGNC [T5F] | 2.61
31 | FFIRSSDSFDKFDFCEPSFVTGNC [T5S] | 3.67
32 | FFIRLSDSFDKFDFCEPSFVTGNC [T5L] | 2.48
33 | FFIRDSDSFDKFDFCEPSFVTGNC [T5D] | 2.37
34 | FFIRHSDSFDKFDFCEPSFVTGNC [T5H] | 2.39
35 | FFIRPSDSFDKFDFCEPSFVTGNC [T5P] | 3.1
36 | FFIRQSDSFDKFDFCEPSFVTGNC [T5Q] | 1.78
37 | FFIRYSDSFDKFDFCEPSFVTGNC [T5Y] | 2.88
38 | FFIRCSDSFDKFDFCEPSFVTGNC [T5C] | 2.77
39 | FFIRNSDSFDKFDFCEPSFVTGNC [T5N] | 1.75
40 | FFIRTSDSFDKFDFCEPSFVSGNC [T21S] | 2.18
41 | FFIRTSDSFDKFDFCEPSFVFGNC [T21F] | 3.34
42 | FFIRTSDSFDKFDFCEPSFVVGNC [T21V] | 3.86
43 | FFIRTSDSFDKFDFCEPSFVEGNC [T21E] | 2.4
44 | FFIRTSDSFDKFDFCEPSFVIGNC [T21I] | 2.9
45 | FFIRTSDSFDKFDFCEPSFVGGNC [T21G] | 3.28
46 | FFIRTSDSFDKFDFCEPSFVKGNC [T21K] | 2.3

Row | Variant | protein stability index
47 | FFIRTSDSFDKFDFCNPSFVTGNC [E16N] | 2.95
48 | FFIRTSDSFDKFDFCGPSFVTGNC [E16G] | 2.2
49 | FFIRTSDSFDKFDFCRPSFVTGNC [E16R] | 2.11
50 | FFIRTSDSFDKFDFCIPSFVTGNC [E16I] | 2.85
51 | FFIRTSDSFDKFDFCFPSFVTGNC [E16F] | 2.04
52 | FFIRTSDSFDKFDFCVPSFVTGNC [E16V] | 2.9
53 | FFIRTSDSFDKFDFCSPSFVTGNC [E16S] | 2.04
54 | FFIRTSDSFDKFDFCQPSFVTGNC [E16Q] | 2.02
55 | FFIRTSDSFDKFDFCWPSFVTGNC [E16W] | 3.77
56 | FFIRTSDSFDKFDFCCPSFVTGNC [E16C] | 2.5
57 | FFIRTSDSFDKFDFCKPSFVTGNC [E16K] | 3.41
58 | FFIRTSDSFDKFDFCEPSFVTGNK [C24K] | 1.92
59 | FFIRTSDSFDKFDFCEPSFVTGNL [C24L] | 2.66
60 | FFIRTSDSFDKFDFCEPSFVTGND [C24D] | 1.64
61 | FFIRTSDSFDKFDFCEPSFVTGNM [C24M] | 3.61
62 | FFIRTSDSFDKFDFCEPSFVTGNP [C24P] | 1.74
63 | FFIRTSDSFDKFDFCEPSFVTGNG [C24G] | 2.09
64 | FFIRTSDSFDKFDFCEPSFVTGNA [C24A] | 2.73
65 | FFIRTSDSFDKWDFCEPSFVTGNC [F12W] | 3.92
66 | FFIRTSDSFDKNDFCEPSFVTGNC [F12N] | 1.61
67 | FFIRTSDSFDKPDFCEPSFVTGNC [F12P] | 1.61
68 | FFIRTSDSFDKDDFCEPSFVTGNC [F12D] | 1.69
69 | FFIRTSDSFDKMDFCEPSFVTGNC [F12M] | 2.05

Row | Variant | protein stability index
70 | FFIVTSDSFDKFDFCEPSFVTGNC [R4V] | 2.33
71 | FFIQTSDSFDKFDFCEPSFVTGNC [R4Q] | 1.74
72 | FFIGTSDSFDKFDFCEPSFVTGNC [R4G] | 1.31
73 | FFISTSDSFDKFDFCEPSFVTGNC [R4S] | 2.39
74 | FFIITSDSFDKFDFCEPSFVTGNC [R4I] | 1.55
75 | FFIRTSDSFDKFDFLEPSFVTGNC [C15L] | 3.34
76 | FFIRTSDSFDKFDFQEPSFVTGNC [C15Q] | 3.22
77 | FFIRTSDSFDKFDFEEPSFVTGNC [C15E] | 2.06
78 | FFIRTSDSFDKFDFGEPSFVTGNC [C15G] | 3.49
79 | FFIRTSDSFDKFDFREPSFVTGNC [C15R] | 2.15
80 | FFIRTSDSFDKFDFIEPSFVTGNC [C15I] | 3.14
81 | FFIRTSDSFDKFDFCEISFVTGNC [P17I] | 2.35
82 | FFIRTSDSFDKFDFCECSFVTGNC [P17C] | 2.42
83 | FFIRTSDSFDKFDFCEHSFVTGNC [P17H] | 3.52
84 | FFIRTSDSFDKFDFCEASFVTGNC [P17A] | 2.74
85 | FFIRTSDSFDKFDFCEFSFVTGNC [P17F] | 2.3
86 | FFIRTSDSFDKFDFCEKSFVTGNC [P17K] | 2
87 | FFIRTSDSFDKFDFCEYSFVTGNC [P17Y] | 3.1
88 | FFIRTSDSFDKFDFCEWSFVTGNC [P17W] | 4.64
89 | FYIRTSDSFDKFDFCEPSFVTGNC [F2Y] | 2.58
90 | FKIRTSDSFDKFDFCEPSFVTGNC [F2K] | 2.06
91 | FIIRTSDSFDKFDFCEPSFVTGNC [F2I] | 2.55
